Assay results from US20240026036A1.

Biological target: Recombinant human TNFα (R&D Systems) (human) (UniProt P01375)
Sequence (P01375 77-233 limits assumed): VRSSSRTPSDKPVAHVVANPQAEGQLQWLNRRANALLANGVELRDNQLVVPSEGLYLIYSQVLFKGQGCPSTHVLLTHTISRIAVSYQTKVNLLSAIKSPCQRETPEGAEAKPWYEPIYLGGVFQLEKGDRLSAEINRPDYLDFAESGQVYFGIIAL

- IC50, inhibition of TNFα-induced Caspase 3 activity in U937 cells: 0.144 nM
Substance: etanercept (Fc fusion)
